From patent US20240279344A1 (CDR LIFE, published 2024)
Positions count from the first letter of the chain named.

B1: M0848 scFv (scFv)
scFv: QEQLVESGGGLVTPGTPLTLTCTVSGFSLSSYAMGWVRQAPGKGLEWIGTINDGGTAFYASWVKGRFTISRTSTTVDLRVTSPTTEDTATYFCARAYGSNGDVYWGYFNLWGQGTLVTVSSGGGGSGGGGSGGGGSGGGGASELDLTQTPASVEVAVGGTVTIKCQASQSIGSYLSWYQQKPGQRPKLLIFRASTLASGVSSRFKGSGSGTQFTLTISGVECADAATYYCQQGYSSTNLDNVFGGGTEVVVK
notes: Rabbit scFv identified by phage display
B2: M0850 scFv (scFv)
scFv: QEQLEESGGGLVTPGTPLTLTCTASGFSLSSYAMIWVRQAPGKGLEWIGTINDGGTAFYANWVKGRFTISRTSTTVDLKMTSPTTEDTATYFCARAYGSNGDVYWGYVNLWGQGTLVTVSSGGGGSGGGGSGGGGSGGGGASELVMTQTPASVSEPVGGTVTIKCQASQSIGSNLAWYQQKPGQPPKLLIYAAANLASGVSSRFKGSRSGTEYTLTISGVQAADAATYYCQQGYSSSNVANVFGGGTELEIL
notes: as for B1
B3: M0849 scFv (scFv)
scFv: QEQLEESGGGLVTPGGTLTLTCTVSGFSLSNYAMGWVRQAPGKGLEWIGTINDGGTAFYAKWLKGRFTISRTSTTVDLKITSPTTEDTATYFCARAYGSNGDVYWGYFNLWGQGTLVTISSGGGGSGGGGSGGGGSGGGGASELVMTQTPSSVSEPVGGTVTIKCQASQSIGSNLAWYQQRPGQPPKLLIYSASTLASGVSSRFKGSGSGTESTLTISGVQAADAATYYCQQGYSSSNVDNVFGGGTELEIL
notes: as for B1
B4: M0852 scFv (scFv)
scFv: QQQLEESGGGLVTPGTPLTLTCTVSGFSLSNYAMGWVRQAPGKGLEWIGTINDGGTAFYANWLKGRFTISRTSTTVDLKITSPTTEDTATYFCARAYGSNGDVYWGYFNLWGQGTLVTVSSGGGGSGGGGSGGGGSGGGGASELVMTQTASPVSAAVGGTVTINCQASQSISSRSLSWYQQKPGQPPKLLIYEASKLASGVPSRFSGSGSGTQFTLTISGVQADDAATYYCQQGYSSSNVDNVFGGGTEVVVK
notes: as for B1
B5: M0851 scFv (scFv)
scFv: QEQLEESGGGLVTPGTPLTLTCTASGFSLSSYAMIWVRQAPGKGLEWIGTINDGGTAFYASWVKGRFTISRTSTTVDLKITSPTTEDTATYFCARAYGSNGDVYWGYVNLWGQGTLVTISSGGGGSGGGGSGGGGSGGGGASELVMTQTPSSVSAAVGGTVTINCQASQNIGSVFAWYQQKPGQPPKLLIYKASSLASGVPSRFKGSGSGTQFTLTISGVEAADAATYYCQQGASSSNVDNIFGGGTEVVVK
notes: as for B1
B6: M1128 (bispecific antibody, V domains shown)
VH: EVQLLESGGGSVQPGGSLRLSCTVSGFSLSNYAMSWVRQAPGKGLEWIGIVSSGGTTYYASWAKGRFTISKDTSKNTVYLQMNSLRAEDTASYYCAKDLYYGPTTYSAFNLWGQGTSVTVSS
VL: SYELTQPPSVSVSPGQTASITCTADTLSRSYASWYQQKPGQSPVLVIYRDTSRPSGIPERFSGSNSGNTATLTISGTQAMDEADYYCATRPSSGSNFALFGGGTKLTVL
notes: Variant of humanized M0763; tested in SPR as anti-CD3 Fab x anti-MAGE-A4 scFv bispecific
B7: M1310 (bispecific antibody, V domains shown)
VH: EVQLLESGGGSVQPGGSLRLSCTVSGFSLSNYAMSWVRQAPGKGLEWIGIVSSGGTTYYASWAKGRFTISKDTSKNTVYLQMNSLRAEDTASYYCAKDLYYGPNTDYSAANLWGQGTSVTVSS
VL: B6 VL with A98Q, L99A
notes: as for B6
B8: M1138 (bispecific antibody, V domains shown)
VH: B6 VH with Y58A
VL: B6 VL with A98Q
notes: as for B6
B9: M1177 (bispecific antibody, V domains shown)
VH: B6 VH with F109A
VL: B6 VL with F97T, A98V, L99V
notes: as for B6
B10: M1297 (bispecific antibody, V domains shown)
VH: B6 VH with T104S, S107F, A108V, F109A
VL: B6 VL with A98Q
notes: as for B6
B11: M1135 (bispecific antibody, V domains shown)
VH: B6 VH with G55A
VL: B6 VL with A98Q
notes: as for B6
B12: M1300 (bispecific antibody, V domains shown)
VH: B6 VH with F109A
VL: B6 VL with P91L, S92F, A98Q
notes: as for B6
B13: M1143 (bispecific antibody, V domains shown)
VH: B6 VH with A63S
VL: B6 VL with A98Q
notes: as for B6
B14: M1132 (bispecific antibody, V domains shown)
VH: B6 VH with S52A
VL: B6 VL with A98Q
notes: as for B6
B15: M1129 (bispecific antibody, V domains shown)
VH: B6 VH
VL: B6 VL with A98Q, L99A
notes: as for B6
B16: M1178 (bispecific antibody, V domains shown)
VH: B6 VH with F109A
VL: B6 VL with A88Q, T89A, A98Q
notes: as for B6
B17: M1301 (bispecific antibody, V domains shown)
VH: B6 VH with F109A
VL: B6 VL with P91D, S92F, A98Q
notes: as for B6
B18: M1302 (bispecific antibody, V domains shown)
VH: B7 VH
VL: B6 VL with A98Q
notes: as for B6
B19: M1253 (bispecific antibody, V domains shown)
VH: B6 VH with F109A
VL: B6 VL with A98Q, L99A
notes: as for B6
B20: M1140 (bispecific antibody, V domains shown)
VH: B6 VH with A60S
VL: B6 VL with A98Q
notes: as for B6
B21: M1141 (bispecific antibody, V domains shown)
VH: B6 VH with S61A
VL: B6 VL with A98Q
notes: as for B6
B22: M1136 (bispecific antibody, V domains shown)
VH: B6 VH with T56A
VL: B6 VL with A98Q
notes: as for B6
B23: M1309 (bispecific antibody, V domains shown)
VH: B6 VH with T104S, S107F, A108V, F109A
VL: B6 VL with A98Q, L99A
notes: as for B6
B24: M1169 (bispecific antibody, V domains shown)
VH: B6 VH with F109A
VL: B6 VL with A98V
notes: as for B6
B25: M1139 (bispecific antibody, V domains shown)
VH: B6 VH with Y59A
VL: B6 VL with A98Q
notes: as for B6
B26: M1298 (bispecific antibody, V domains shown)
VH: B6 VH with F109A
VL: B6 VL with S92W, S93P, A98Q
notes: as for B6
B27: M1144 (bispecific antibody, V domains shown)
VH: B6 VH with K64A
VL: B6 VL with A98Q
notes: as for B6
B28: M1134 (bispecific antibody, V domains shown)
VH: B6 VH with G54A
VL: B6 VL with A98Q
notes: as for B6
B29: M1137 (bispecific antibody, V domains shown)
VH: B6 VH with T57A
VL: B6 VL with A98Q
notes: as for B6
B30: M1142 (bispecific antibody, V domains shown)
VH: B6 VH with W62A
VL: B6 VL with A98Q
notes: as for B6
B31: M1172 (bispecific antibody, V domains shown)
VH: B6 VH with F109P
VL: B6 VL with A98Q
notes: as for B6
B32: M1299 (bispecific antibody, V domains shown)
VH: B6 VH with F109A
VL: B6 VL with S92F, S93P, A98Q
notes: as for B6
B33: M1133 (bispecific antibody, V domains shown)
VH: B6 VH with S53A
VL: B6 VL with A98Q
notes: as for B6
B34: M1171 (bispecific antibody, V domains shown)
VH: B6 VH with F109L
VL: B6 VL with A98Q
notes: as for B6
B35: M1131 (bispecific antibody, V domains shown)
VH: B6 VH with V51A
VL: B6 VL with A98Q
notes: as for B6
B36: M1202 (bispecific antibody, V domains shown)
VH: B6 VH with A108S, F109A
VL: B6 VL with A98Q
notes: as for B6
B37: M1176 (bispecific antibody, V domains shown)
VH: B6 VH with F109A
VL: B6 VL with N96V, A98Q
notes: as for B6
B38: M1130 (bispecific antibody, V domains shown)
VH: B6 VH with I50A
VL: B6 VL with A98Q
notes: as for B6
B39: M1145 (bispecific antibody, V domains shown)
VH: B6 VH with G65A
VL: B6 VL with A98Q
notes: as for B6

Columns and labels:
[1] = target: T1, HLA-A2/MAGE-A4 complex, recombinant (HLA-A*02:01 extracellular domain, human b2m, MAGE-A4 peptide 230-239 …) (human, UniProt P04439 25-299 at identity 0.94); P61769 21-119); experiment: phage display biopanning and screening
T1 construct: also called MAGE-A4 pMHC; MAGE-A4/HLA-A2 complex

[2] = target: T1, HLA-A2/MAGE-A4 complex, recombinant …; experiment: SPR, monovalent

Binder	binding result [1]	Kd [2] [nM]
B1	binds	–
B2	binds	–
B3	binds	–
B4	binds	–
B5	binds	–
B6	–	1.32
B7	–	0.35
B8	–	3.1
B9	–	4.2
B10	–	0.09
B11	–	2.4
B12	–	0.12
B13	–	2.4
B14	–	4.1
B15	–	0.46
B16	–	8.3
B17	–	0.12
B18	–	0.6
B19	–	2.55
B20	–	2.8

Binder	binding result [1]	Kd [2] [nM]
B21	–	1.2
B22	–	2.7
B23	–	0.09
B24	–	3.2
B25	–	2.1
B26	–	0.07
B27	–	2.3
B28	–	4.2
B29	–	2.2
B30	–	2.9
B31	–	1.5
B32	–	0.05
B33	–	12.4
B34	–	4.4
B35	–	3.2
B36	–	3.9
B37	–	6
B38	–	2.2
B39	–	2.1
